Positions count from the first letter of the chain named.
B1: 109 (protein)
chain: STAIAQEGAAPAAILHPEKWPRPATQRLIDPAVEKRVDALLKQLSVEEKVGQVIQGDIGTITPEDLRKYPLGSILAGGNSGPNGDDRAPPKEWLDLADAFYRVSLEKRPGHTPIPVLFGIDAVHGHGNIGSATIFPHNIALGATRDPELLRRIGEVTAVEMAATGIDWTFAPALSVVRDDRWGRTYEGFSEDPEIVAAYSAAIVEGVQGKFGSKDFMAPGRIVASAKHFLADGGTDQGRDQGDARISEDELIRIHNAGYPPAIDAGVLTVMASFSSWQGIKHHGHKQLLTDVLKGQMGFNGFIVGDWNAHDQVPGCTKFNCPTSLIAGLDMYMAADSWKQLYENTLAQVKDGTIPMARLDDAVRRILRVKVLAGLFEKPAPKDRPGLPGLETLGSPEHRAVGREAVRKSLVLLKNDKGTLPLSPKARVLVAGDGADNIGKQSGGWTISWQGTGNRNDEFPGATSILGGIRDAVADAGGSVEFDVAGQYKTKPDVAIVVFGEEPYAEFQGDVETLEYQPDQKQDLALLKKLKDQGIPVVAVFLSGRPMWVNPELNASDAFVAAWLPGTEGGGVADVLFTDKAGKVQHDFAGKLSYSWPRTAAQTTVNRGDADYNPLFAYGYGLTYKDKSKVGTLPEESGVPAEARQNAGIYFRAGALRLPGRF
B2: 112 (protein)
chain: STAIAQEGAAPAAILHPEKWPRPATQRLIDPAVEKRVDALLKQLSVEEKVGQVIQGDIGTITPEDLRKYPLGSILAGGDSGPNGDDRAPPKEWLDLADAFYRVSLEKRPGHTPIPVLFGIDAVHGHGKIGSATIFPHNIALGMTRDPELLRRIGEVTAEEMAATGIDWTFAPCLSVVRDDRWGRTYEGFSEDPEIVAAYSAAIVEGVQGKFGSKDFMAPGRIVASAKHFLADGGTDQGRDQGDARISEDELIRIHNAGYPPAIDAGVLTVMASFSSWQGIKHHGHKQLLTDVLKGQMGFNGFIVGDWNAHDQVPGCTKFNCPTSLIAGLDMYMAADSWKQLYENTLAQVKDGTIPMARLDDAVRRILRVKVLAGLFEKPAPKDRPGLPGLETLGSPEHRAVGREAVRKSLVLLKNDKGTLPLSPKARVLVAGDGADNIGKQSGGWTISWQGTGNRNDEFPGATSILGGIRDAVADAGGSVEFDVAGQYKTKPDVAIVVFGEEPYAEFQGDVETLEYQPDQKQDLALLKKLKDQGIPVVAVFLSGRPMWVNPELNASDAFVAAWLPGTEGGGVADVLFTDKAGKVQHDFAGKLSYSWPRTAAQTTVNRGDADYNPLFAYGYGLTYKDKSKVGTLPEESGVPAEARQNAGIYFRAGALRLPGRFL
B3: 125 (protein)
chain: B2 chain with D79N, K128N, M143A, E159V, C173A, A201P, I222S, S225C
B4: 119 (protein)
chain: B2 chain with D79N, K128N, M143A, E159Q, C173A, A201P, F211Y, S225C
B5: 129 (protein)
chain: B2 chain with K128N, M143A, A162T, C173A, A201P, S225C, I535V
B6: 126 (protein)
chain: B2 chain with K128N, E159V, A162T, C173A, A201P, S225C, Q585R
B7: 116 (protein)
chain: B2 chain with M143A, E159V, A162T, C173A, F211Y, S225C, K625Q
B8: 130 (protein)
chain: B2 chain with A24V, D79N, K128N, C173A, A201P, F211Y, I222S, S225C
B9: 131 (protein)
chain: B2 chain with D79N, M143A
B10: 118 (protein)
chain: B2 chain with E159V, A162T, C173A, A198S, F211Y, I222S, S225C
B11: 122 (protein)
chain: B2 chain with M143A, C173A, A201P, F211Y, P219V, S225C
B12: 121 (protein)
chain: B2 chain with D79N, K128N, M143A, D146S, E159V, A162T, A201P
B13: 113 (protein)
chain: B2 chain with D79N, E159Q, C173A, A201P, F211Y, S225C
B14: 127 (protein)
chain: B2 chain with K128N, M143A, D146S, E159V, C173A, A201P, F211Y, I222S, S225C
B15: 123 (protein)
chain: B2 chain with E159V, A162T, C173A, A201P, F211Y, P219V
B16: 132 (protein)
chain: B2 chain with K91Q, M143A, D146S, E159V, C173A, A201P, F211Y, I222A, S225C
B17: 114 (protein)
chain: B2 chain with A97T, F211Y, Q508R
B18: 124 (protein)
chain: B2 chain with K128N, M143A, D146S, C173A, A201P, F211Y, S225C, K339R
B19: 128 (protein)
chain: B2 chain with C173A, A201P, F211Y, S225C
B20: 120 (protein)
chain: B2 chain with K128N, M143A, E159V, A162T, C173A, A198S, L663P
B21: 115 (protein)
chain: B2 chain with M143A, E159V, A163T, A201P, F211Y, S225C, Q487R, A562P
B22: 110 (protein)
chain: STAIAQEGAAPAAILHPEKWPRPATQRLIDPAVEKRVDALLKQLSVEEKVGQVIQGDIGTITPEDLRKYPLGSILAGGNSGPNGDDRAPPKEWLDLADAFYRVSLEKRPGHTPIPVLFGIDAVHGHGNIGSATIFPHNIALGATRDPELLRRIGEVTAVEMAATGIDWTFAPALSVVRDDRWGRTYEGFSEDPEIVAAYSAAIVEGVQGKFGSKDFMAPGRIVASAKHFLADGGTDQGRDQGDARISEDELIRIHNAGYPPAIDAGVLTVMASFSSWQGIKHHGHKQLLTDVLKGQMGFNGFIVGDWNAHDQVPGCTKFNCPTSLIAGLDMYMAADSWKQLYENTLAQVKDGTIPMARLDDAVRRILRVKVLAGLFEKPAPKDRPGLPGLETLGSPEHRAVGREAVRKSLVLLKNDKGTLPLSPKARVLVAGDGADNIGKQSGGWTISWQGTGNRNDEFPGATSILGGIRDAVADAGGSVEFDVAGQYKTKPDVAIVVFGEEPYAEFQGDVETLEYQPDQKQDLALLKKLKDQGIPVVAVFLSGRPMWVNPELNASDAFVAAWLPGTEGGGVADVLFTDKAGKVQHDFAGKLSYSWPRTAAQTTVNRGDADYNPLFAYGYGLTYKDKSKVGTLPEESGVPAE
B23: 111 (protein)
chain: STAIAQEGAAPAAILHPEKWPRPATQRLIDPAVEKRVDALLKQLSVEEKVGQVIQGDIGTITPEDLRKYPLGSILAGGNSGPNGDDRAPPKEWLDLADAFYRVSLEKRPGHTPIPVLFGIDAVHGHGNIGSATIFPHNIALGATRDPELLRRIGEVTAVEMAATGIDWTFAPALSVVRDDRWGRTYEGFSEDPEIVAAYSAAIVEGVQGKFGSKDFMAPGRIVASAKHFLADGGTDQGRDQGDARISEDELIRIHNAGYPPAIDAGVLTVMASFSSWQGIKHHGHKQLLTDVLKGQMGFNGFIVGDWNAHDQVPGCTKFNCPTSLIAGLDMYMAADSWKQLYENTLAQVKDGTIPMARLDDAVRRILRVKVLAGLFEKPAPKDRPGLPGLETLGSPEHRAVGREAVRKSLVLLKNDKGTLPLSPKARVLVAGDGADNIGKQSGGWTISWQGTGNRNDEFPGATSILGGIRDAVADAGGSVEFDVAGQYKTKPDVAIVVFGEEPYAEFQGDVETLEYQPDQKQDLALLKKLKDQGIPVVAVFLSGRPMWVNPELNASDAFVAAWLPGTEGGGVADVLFTDKAGKVQHDFAGKLSYSWPRTAAQTTVNRGDADYNPLFAYGYGLTYKDKSKVGTLPEESGVPAEARQNAGIYFR

assay: High throughput cellobiose assay: fold improvement in cellobiase activity of CelA variants over a control enzyme (Tables 2A-2D, 3, 5, 6, 7); assay type: biochemical; conditions: 3.3 g/l cellobiose, 55° C. and pH 6.0

| Molecule | Fold improvement over Control Variant No. 5 from Table 2A |
| --- | --- |
| B1 | ++ (++ = 1.1 to 6 fold improvement over control Variant No. 2) |
| B2 | +++ (+++ = 6 to 13 fold improvement over control Variant No. 2) |
| B3 | +++ (+++ = 6 to 13 fold improvement over control Variant No. 2) |
| B4 | +++ (+++ = 6 to 13 fold improvement over control Variant No. 2) |
| B5 | +++ (+++ = 6 to 13 fold improvement over control Variant No. 2) |
| B6 | ++ (++ = 1.1 to 6 fold improvement over control Variant No. 2) |
| B7 | +++ (+++ = 6 to 13 fold improvement over control Variant No. 2) |
| B8 | +++ (+++ = 6 to 13 fold improvement over control Variant No. 2) |
| B9 | ++ (++ = 1.1 to 6 fold improvement over control Variant No. 2) |
| B10 | +++ (+++ = 6 to 13 fold improvement over control Variant No. 2) |
| B11 | +++ (+++ = 6 to 13 fold improvement over control Variant No. 2) |
| B12 | ++ (++ = 1.1 to 6 fold improvement over control Variant No. 2) |
| B13 | +++ (+++ = 6 to 13 fold improvement over control Variant No. 2) |
| B14 | +++ (+++ = 6 to 13 fold improvement over control Variant No. 2) |
| B15 | ++ (++ = 1.1 to 6 fold improvement over control Variant No. 2) |
| B16 | +++ (+++ = 6 to 13 fold improvement over control Variant No. 2) |
| B17 | +++ (+++ = 6 to 13 fold improvement over control Variant No. 2) |
| B18 | +++ (+++ = 6 to 13 fold improvement over control Variant No. 2) |
| B19 | +++ (+++ = 6 to 13 fold improvement over control Variant No. 2) |
| B20 | +++ (+++ = 6 to 13 fold improvement over control Variant No. 2) |
| B21 | ++ (++ = 1.1 to 6 fold improvement over control Variant No. 2) |
| B22 | ++ (++ = 1.1 to 6 fold improvement over control Variant No. 2) |
| B23 | ++ (++ = 1.1 to 6 fold improvement over control Variant No. 2) |
